From PMC10858482

Biological target: SARS-CoV-2 Omicron BA.1 spike protein (SARS-CoV-2 (Omicron BA.1)) (UniProt P0DTC2)
Assay: cryo-EM structure; Tr67 and Omicron BA.1 spike mixed in a 1.5:1 weight ratio, 0.3 mg/ml; single-particle analysis, C3 symmetry, map at ~9 Å

“SARS-CoV-2 Omicron BA.1 spike protein (from UniProt P0DTC2 14-1273) (natural protein)” was tested. Which stoichiometry N did it give?
Its stoichiometry N is 3.
